Target: T1, GST-tagged MCM2 (human, UniProt P49736 1-904)
T1 construct: MCM2, amplified from cDNA of human MCF-7 cells, in pGEX-C5X; called MCM2-His in the three-protein pull-down; also called GST-MCM2; MCM2-His; source: E. coli BL21, purified (Ni-NTA); not shown: GST, N-terminal, kept; His tag, C-terminal, kept
Assay: BLI; MCM2 immobilised on Anti-GST biosensors, BLItz, 1x PBS and 0.02% Tween; analyte 0-50.0 nM
Details: both partners purified

T1 sequence (P49736 whole entry): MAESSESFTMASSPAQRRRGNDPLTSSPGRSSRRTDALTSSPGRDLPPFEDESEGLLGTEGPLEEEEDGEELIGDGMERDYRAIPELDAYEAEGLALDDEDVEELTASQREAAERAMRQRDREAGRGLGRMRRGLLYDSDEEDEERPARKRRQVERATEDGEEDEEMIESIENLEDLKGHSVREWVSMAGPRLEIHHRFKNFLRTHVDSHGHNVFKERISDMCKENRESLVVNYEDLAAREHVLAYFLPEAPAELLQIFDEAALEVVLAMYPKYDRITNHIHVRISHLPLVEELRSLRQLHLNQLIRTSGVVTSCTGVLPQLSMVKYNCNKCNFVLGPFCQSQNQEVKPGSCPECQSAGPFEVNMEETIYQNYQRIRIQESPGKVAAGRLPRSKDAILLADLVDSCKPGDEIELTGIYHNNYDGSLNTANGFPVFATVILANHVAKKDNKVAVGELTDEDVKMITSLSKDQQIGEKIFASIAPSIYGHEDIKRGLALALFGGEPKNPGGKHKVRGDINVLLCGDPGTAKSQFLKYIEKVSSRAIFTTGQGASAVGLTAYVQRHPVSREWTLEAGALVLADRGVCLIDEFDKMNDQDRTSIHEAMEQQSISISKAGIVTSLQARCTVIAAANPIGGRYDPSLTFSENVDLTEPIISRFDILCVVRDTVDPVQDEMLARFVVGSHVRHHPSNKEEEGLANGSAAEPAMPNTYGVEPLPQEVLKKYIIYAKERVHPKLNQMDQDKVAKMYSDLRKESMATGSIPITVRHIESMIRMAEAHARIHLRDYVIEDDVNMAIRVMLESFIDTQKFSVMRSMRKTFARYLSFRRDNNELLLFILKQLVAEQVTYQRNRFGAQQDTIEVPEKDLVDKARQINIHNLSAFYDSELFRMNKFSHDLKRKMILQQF

B1: full-length strep-tagged POLD3 (natural protein, human, UniProt Q15054 1-466, looked up)
chain: MADQLYLENIDEFVTDQNKIVTYKWLSYTLGVHVNQAKQMLYDYVERKRKENSGAQLHVTYLVSGSLIQNGHSCHKVAVVREDKLEAVKSKLAVTASIHVYSIQKAMLKDSGPLFNTDYDILKSNLQNCSKFSAIQCAAAVPRAPAESSSSSKKFEQSHLHMSSETQANNELTTNGHGPPASKQVSQQPKGIMGMFASKAAAKTQETNKETKTEAKEVTNASAAGNKAPGKGNMMSNFFGKAAMNKFKVNLDSEQAVKEEKIVEQPTVSVTEPKLATPAGLKKSSKKAEPVKVLQKEKKRGKRVALSDDETKETENMRKKRRRIKLPESDSSEDEVFPDSPGAYEAESPSPPPPPSPPLEPVPKTEPEPPSVKSSSGENKRKRKRVLKSKTYLDGEGCIVTEKVYESESCTDSEEELNMKTSSVHRPPAMTVKKEPREERKGPKKGTAALGKANRQVSITGFFQRK
notes: full-length human POLD3 gene, synthesised and codon-optimised, in pET28b; also called purified POLD3; Strep II-tagged POLD3; source: E. coli BL21, purified (Ni-NTA); not shown: twin-strep, C-terminal, kept
- Kd: 10.2 nM
